This is an account of results in US20200308292A1.

Assay [1] has as its target human insulin receptor extracellular domain (HIR ECD) (human) (UniProt P06213). Nature of the assay: ELISA, HIR ECD plated, biotinylated anti-human IgG detection.
For assay [2] the target is unchanged. Nature of the assay: ELISA, HIR ECD plated; against the HIR Ab as reference.

Usually EC50 stands for the concentration giving half of the maximal effect. Read a high EC50 as weaker potency. Consider “HIR Ab-GUSB fusion protein (GUSB fused to the carboxyl terminus of the HIR Ab heavy chain) (from UniProt P08236 23-633) (antibody)”, for which, in assay [1], the EC50 is 0.81 nM. In other words, the sub-nanomolar range.

The substance “GUSB-HIR Ab fusion protein (GUSB fused to the amino terminus of the HIR Ab heavy chain) (from UniProt P08236 23-633) (antibody)” gave a reduction in receptor binding affinity in assay [2] of 95%. In assay [1], this substance registered an EC50 of 4.8 nM.
